Data as given in US20220396612A1 (UNIVERSIT DE TOURS, published 2022).

B1: monoclonal antibody ‘H6’ secreted by clone BK6A2H6 (antibody, V domains shown)
VH: EVQLQQSGPELVKPGASVKISCKASGYSFTGYFMNWVKQSHGKSLEWIGRINPYNGDTFYNQKFKGKATLTVDKSSSTAHMELLSLTSEDSAVYYCGSYYYGDYFDYWGQGTTLTVSS
VL: SIVMTQIPKFLLVSEGDRVTITCKASQSVSNDVAWYQQKSGQSPKLLIYYASNRYTGVPDRFTGSGYGTDFTFTISTVQAEDLAVYFCQQDYSSPLTFGAGTKLELKR
B2: monoclonal antibody ‘F6’ secreted by clone BK6A2F6 (antibody)
heavy: EVQLQQSGPELVKPGASVKISCKASGYSFTGYFMNWVKQSHGKSLEWIGRINPYNGDTFYNQKFKGKATLTVDKSSSTAHMELLSLTSEDSAVYYCGSYYYGDYFDYWGQGTTLTVSSAKTTPPSVYPLAPGSAAQTNSMVTLGCLVKGYFPEPVTVTWNSGSLSSGVHTFPAVLQSDLYTLSSSVTVPSSTWPSETVTCNVAHPASSTKVDKKIVPRDCGCKPCICTVPEVSSVFIFPPKPKDVLTITLTPKVTCVVVDISKDDPEVQFSWFVDDVEVHTAQTQPREEQFNSTFRSVSELPIMHQDWLNGKEFKCRVNSAAFPAPIEKTISKTKGRPKAPQVYTIPPPKEQMAKDKVSLTCMITDFFPEDITVEWQWNGQPAENYKNTQPIMDTDGSYFVYSKLNVQKSNWEAGNTFTCSVLHEGLHNHHTEKSLSHSPGK
light: […]

Columns and labels:
[1] = target: T1, virus-like particles (VLPs) of BK polyomavirus VP-1 protein, serotype II (BK virus (BKPyV), serotype II, UniProt P14996 1-362); assay: ELISA on coated VLP; supernatant 1/10 240
T1 construct: native VLPs; also called VLP II
T1 chain: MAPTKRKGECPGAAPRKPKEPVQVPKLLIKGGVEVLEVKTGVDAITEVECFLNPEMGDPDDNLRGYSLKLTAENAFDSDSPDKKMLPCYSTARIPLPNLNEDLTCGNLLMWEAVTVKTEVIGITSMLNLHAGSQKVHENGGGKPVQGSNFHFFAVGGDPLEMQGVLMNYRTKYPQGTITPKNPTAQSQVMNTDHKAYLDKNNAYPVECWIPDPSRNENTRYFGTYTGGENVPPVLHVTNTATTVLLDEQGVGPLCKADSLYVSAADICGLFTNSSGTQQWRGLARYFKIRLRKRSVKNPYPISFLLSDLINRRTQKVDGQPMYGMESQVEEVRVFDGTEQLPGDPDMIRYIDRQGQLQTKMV
Procedure: (§1) To do this, the VLPs produced were deposited at a concentration of 1 μg/mL in PBS and incubated overnight at +4° C. The wells were then blocked for 1 h at +37° C. with a PBS/FCS (phosphate-buffered saline/fetal calf serum) mixture. After dilution in a dilution buffer containing FCS, PBS and Tween® 20, the various hybridoma culture supernatants were added for 1 h at +37° C. The wells were washed four times in a row with Wash Buffer and a secondary anti-mouse antibody coupled to peroxidase was added to the 1:2000 dilution for 1 h at +37° C. The wells were washed four more times and the substrate (OPD (ortho phenylene diamine)+H₂O₂) was added for 30 min at room temperature. A stop solution (H₂SO₄ 4N) was then added and each well was read by measuring the absorbance at 492 nm with a spectrophotometer. The value obtained for the average of the control wells (PBS in the first step) is subtracted from the optical density values obtained for each well.

[2] = target: T2, virus-like particles (VLPs) of BK polyomavirus VP-1 protein, serotype Ib2 (BK virus (BKPyV), serotype Ib2, PA …, UniProt P03088 1-362); assay: ELISA on coated VLP; supernatant 1/10 240
T2 construct: native VLPs; also the immunogen; also called VLP Ib2; BK Ib2
T2 chain: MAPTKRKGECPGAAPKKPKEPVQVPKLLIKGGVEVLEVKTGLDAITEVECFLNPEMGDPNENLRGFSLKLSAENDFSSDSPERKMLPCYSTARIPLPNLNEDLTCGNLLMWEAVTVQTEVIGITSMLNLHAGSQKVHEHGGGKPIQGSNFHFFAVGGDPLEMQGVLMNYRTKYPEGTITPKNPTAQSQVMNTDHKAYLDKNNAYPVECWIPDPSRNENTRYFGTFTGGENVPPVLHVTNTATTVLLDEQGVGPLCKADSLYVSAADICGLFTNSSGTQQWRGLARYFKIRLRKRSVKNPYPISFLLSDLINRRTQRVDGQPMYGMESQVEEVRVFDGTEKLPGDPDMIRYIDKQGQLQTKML
Procedure: as §1

[3] = target: T3, virus-like particles (VLPs) of BK polyomavirus VP-1 protein, serotype IV (BK virus (BKPyV), serotype IV, UniProt P14996 1-362); assay: ELISA on coated VLP; supernatant 1/10 240
T3 construct: native VLPs; also called VLP IV
T3 chain: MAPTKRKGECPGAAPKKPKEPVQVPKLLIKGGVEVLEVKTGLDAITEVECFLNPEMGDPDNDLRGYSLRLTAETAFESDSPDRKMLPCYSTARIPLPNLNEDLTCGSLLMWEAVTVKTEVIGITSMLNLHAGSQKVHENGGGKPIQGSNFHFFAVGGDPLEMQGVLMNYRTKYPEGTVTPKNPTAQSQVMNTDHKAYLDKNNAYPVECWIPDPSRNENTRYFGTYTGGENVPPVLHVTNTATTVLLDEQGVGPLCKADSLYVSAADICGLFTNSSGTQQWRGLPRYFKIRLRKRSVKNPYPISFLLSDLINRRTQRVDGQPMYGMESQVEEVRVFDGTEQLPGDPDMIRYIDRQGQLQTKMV
Procedure: as §1

[4] = target: T4, virus-like particles (VLPs) of BK polyomavirus VP-1 protein, serotype Ia (BK virus (BKPyV), serotype Ia, UniProt P03088 1-361); assay: ELISA on coated VLP; supernatant 1/10 240
T4 construct: self-assembled native VLPs coated on ELISA plates; also called VLP Ia; BKV VP-1, serotype Ia
T4 chain: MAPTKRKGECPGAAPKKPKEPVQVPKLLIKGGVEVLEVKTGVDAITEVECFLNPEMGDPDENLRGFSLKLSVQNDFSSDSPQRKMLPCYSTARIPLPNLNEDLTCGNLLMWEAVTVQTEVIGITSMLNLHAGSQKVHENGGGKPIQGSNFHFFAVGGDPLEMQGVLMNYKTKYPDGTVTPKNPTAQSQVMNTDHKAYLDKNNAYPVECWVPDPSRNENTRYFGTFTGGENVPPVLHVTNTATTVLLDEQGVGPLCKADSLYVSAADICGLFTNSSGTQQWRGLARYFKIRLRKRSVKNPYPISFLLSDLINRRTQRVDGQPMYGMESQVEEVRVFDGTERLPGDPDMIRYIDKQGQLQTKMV
Procedure: as §1

[5] = target: T1, virus-like particles (VLPs) of BK …; assay: ELISA on coated VLP; supernatant 1/1 280
Procedure: as §1

[6] = target: T3, virus-like particles (VLPs) of BK …; assay: ELISA on coated VLP; supernatant 1/1 280
Procedure: as §1

[7] = target: T4, virus-like particles (VLPs) of BK …; assay: ELISA on coated VLP; supernatant 1/1 280
Procedure: as §1

[8] = target: T1, virus-like particles (VLPs) of BK …; assay: ELISA on coated VLP; supernatant 1/20 480
Procedure: as §1

[9] = target: T2, virus-like particles (VLPs) of BK …; assay: ELISA on coated VLP; supernatant 1/20 480
Procedure: as §1

[10] = target: T3, virus-like particles (VLPs) of BK …; assay: ELISA on coated VLP; supernatant 1/20 480
Procedure: as §1

[11] = target: T4, virus-like particles (VLPs) of BK …; assay: ELISA on coated VLP; supernatant 1/20 480
Procedure: as §1

[12] = target: T1, virus-like particles (VLPs) of BK …; assay: ELISA on coated VLP; supernatant 1/160
Procedure: as §1

[13] = target: T4, virus-like particles (VLPs) of BK …; assay: ELISA on coated VLP; supernatant 1/160
Procedure: as §1

| Binder | OD 492 nm [1] | OD 492 nm [2] | OD 492 nm [3] | OD 492 nm [4] | OD 492 nm [5] | OD 492 nm [6] | OD 492 nm [7] | OD 492 nm [8] | OD 492 nm [9] | OD 492 nm [10] | OD 492 nm [11] | OD 492 nm [12] | OD 492 nm [13] |
| --- | --- | --- | --- | --- | --- | --- | --- | --- | --- | --- | --- | --- | --- |
| B1 | 0.06 OD | 0.06 OD | 0.17 OD | 0.22 OD | 0.08 OD | 0.91 OD | 0.81 OD | 0.06 OD | 0.06 OD | 0.12 OD | 0.16 OD | 0.14 OD | 3.06 OD |
| B2 | 0.08 OD | 0.08 OD | 0.48 OD | 0.19 OD | 0.09 OD | 2.04 OD | 2.11 OD | 0.1 OD | 0.11 OD | 0.26 OD | 0.27 OD | 0.27 OD | 3.21 OD |
